Reference: patent US20250376529A1 (Amgen, published 2025)

T1: Rhesus GIPR (rhesus, UniProt F7E1R9 22-466)
T1 sequence: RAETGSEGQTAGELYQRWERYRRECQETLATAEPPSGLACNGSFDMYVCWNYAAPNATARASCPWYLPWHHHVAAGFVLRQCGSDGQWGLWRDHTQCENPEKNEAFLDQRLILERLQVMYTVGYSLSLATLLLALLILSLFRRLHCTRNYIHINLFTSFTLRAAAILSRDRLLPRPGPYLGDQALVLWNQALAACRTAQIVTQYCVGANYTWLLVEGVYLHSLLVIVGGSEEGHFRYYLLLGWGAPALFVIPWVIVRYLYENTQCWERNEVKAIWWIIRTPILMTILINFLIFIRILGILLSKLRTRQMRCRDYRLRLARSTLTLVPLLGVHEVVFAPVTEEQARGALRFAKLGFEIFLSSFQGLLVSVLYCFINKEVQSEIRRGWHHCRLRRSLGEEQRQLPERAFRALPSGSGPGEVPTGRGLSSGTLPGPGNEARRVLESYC

B1: 18F2.012 (antibody, human IgG1, kappa, N297G, V domains shown)
VH: not shown
VL: DIQMTQSPSSLSASIGDRVTITCRASQDLRNYLGWYQQKPGKAPKLLIYGASSLQSGVPSRFSGSGSGTEFTLTISSLQPEDFATYYCLQHNNYPFTFGPGTKVDIKR
B2: 6H1.002 (antibody, human IgG1, kappa, N297G, V domains shown)
VH: not shown
VL: DIQMTQSPSSLSASIGDRVTITCRASQDIRDYLGWYQQKPGKAPKRLIYGASSLQSGVPSRFSGSGSGTEFTLTISSLQPEDFATYYCLQHNNYPFTFGPGTKVDIKR
B3: 4B1.016 (antibody, human IgG1, kappa, N297G, V domains shown)
VH: not shown
VL: DIQMTQSPSSLSASIGDRVTITCRASQDIRDYLGWYQQKPGKAPKLLIYGASSLQSGVPSRFSGSGSGTEFTLTISSLQPEDFATYYCLQHNNYPFTFGQGTKVDIKR
B4: 4B1.015 (antibody, human IgG1, kappa, N297G, V domains shown)
VH: not shown
VL: DIQMTQSPSSLSASIGDRVTITCRASQDIRDYLGWYQQKPGKAPKLLIYGASSLQSGVPSRFSGSGSGTEFTLTISSLQPEDFATYYCLQHNNYPFTFGQGTKVDIKR
B5: 4H9.004.004 (antibody, human IgG1, kappa, N297G)
heavy: not shown
light: DIQMTQSPSSLSASVGDRVTITCRASQGIRNELGWYQQKPGKAPKLLIYGASSLQSGVPSRFSGSGSGTEFTLTISSLQPEDFVTYYCLQHNSYPFTFGPGTKVDVKRTVAAPSVFIFPPSDEQLKSGTASVVCLLNNFYPREAKVQWKVDNALQSGNSQESVTEQDSKDSTYSLSSTLTLSKADYEKHKVYACEVTHQGLSSPVTKSFNRGEC
B6: 4H9.004.001 (antibody, human IgG1, kappa, N297G)
heavy: not shown
light: DIQMTQSPSSLSASVGDRVTITCRASQGIRNELGWYQQKPGKAPKLLIYGASSLQSGVPSRFSGSGSGTEFTLTISSLQPEDFVTYYCLQHNSYPFTFGQGTKVDVKRTVAAPSVFIFPPSDEQLKSGTASVVCLLNNFYPREAKVQWKVDNALQSGNSQESVTEQDSKDSTYSLSSTLTLSKADYEKHKVYACEVTHQGLSSPVTKSFNRGEC
B7: 4B1 (antibody, human IgG1, kappa, N297G, V domains shown)
VH: QVQLVESGGGVVQPGRSLRLSCAASGFTFSNFGMHWVRQAPGKGLEWVAVIWYDGSNENYADSVKGRFTISRDNSKNTLYLHMNSLRVADTAVYYCARDGTIFGVVLGDYWGQGTLVTVSS
VL: DIQMTQSPSSLSASIGDRVTITCRASQDIRDYLGWYQQKPGKAPKRLIYGASSLQSGVPSRFSGSGSGTEFTLTISSLQPEDFATYYCLQHNNYPFTFGPGTKVDIKR
B8: 4B1.014 (antibody, human IgG1, kappa, N297G, V domains shown)
VH: QVQLVESGGGVVQPGRSLRLSCAASGFTFSNFGMHWVRQAPGKGLEWVAVIWYDGSNENYADAVKGRFTISRDNSKNTLYLHMNSLRVADTAVYYCARDGTIFGVVLGDYWGQGTLVTVSS
VL: DIQMTQSPSSLSASIGDRVTITCRASQDIRDYLGWYQQKPGKAPKLLIYGASSLQSGVPSRFSGSGSGTEFTLTISSLQPEDFATYYCLQHNNYPFTFGQGTKVDIKR
B9: 4B1.013 (antibody, human IgG1, kappa, N297G, V domains shown)
VH: QVQLVESGGGVVQPGRSLRLSCAASGFTFSNFGMHWVRQAPGKGLEWVAVIWYDASNENYADSVKGRFTISRDNSKNTLYLHMNSLRVADTAVYYCARDGTIFGVVLGDYWGQGTLVTVSS
VL: DIQMTQSPSSLSASIGDRVTITCRASQDIRDYLGWYQQKPGKAPKLLIYGASSLQSGVPSRFSGSGSGTEFTLTISSLQPEDFATYYCLQHNNYPFTFGQGTKVDIKR
B10: 4B1.011 (antibody, human IgG1, kappa, N297G, V domains shown)
VH: not shown
VL: DIQMTQSPSSLSASIGDRVTITCRASQDIRDYLGWYQQKPGKAPKRLIYGASSLQSGVPSRFSGSGSGTEFTLTISSLQPEDFATYYCLQHNNYPFTFGQGTKVDIKR

The binders below were run against T1, Rhesus GIPR (assay: cell-based or functional assay).

Row | Binder | Rhesus GIPR CAMP Assay (Conc. mAb @ 60% Inhibition in nM) [nM]
1 | B1 | 1.88
2 | B2 | 0.31
3 | B3 | 1.57
4 | B4 | 0.84
5 | B5 | 0.44
6 | B6 | 0.43
7 | B7 | 0.67
8 | B8 | 0.95
9 | B9 | 1.35
10 | B10 | 0.51
